# T1: human OX40 receptor (hOX40), residues 29-170 (human, UniProt P43489 29-170, in the competition ELISA only: biotinylated with a 4 fold molar excess of biotin-NHS-LC (sites not given))
# T1 construct: Secreted from High Five insect cells (baculovirus), His-tag cleaved; also called hOX40 receptor; monomeric hOX40
# T1 sequence: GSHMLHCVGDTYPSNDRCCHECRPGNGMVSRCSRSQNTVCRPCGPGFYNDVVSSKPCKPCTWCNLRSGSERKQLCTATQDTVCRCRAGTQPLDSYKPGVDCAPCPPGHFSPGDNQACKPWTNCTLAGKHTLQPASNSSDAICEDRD
# T2: human OX40 receptor (hOX40), residues 29-170 (human, UniProt P43489 29-170, biotinylated with biotin-NHS-LC in the competition ELISA (Table II); not biotinylated in the crystals (Tables 6 and 7))
# T2 construct: Monomeric soluble receptor fragment; also called hOX40Receptor; HOX40 receptor
# T2 sequence: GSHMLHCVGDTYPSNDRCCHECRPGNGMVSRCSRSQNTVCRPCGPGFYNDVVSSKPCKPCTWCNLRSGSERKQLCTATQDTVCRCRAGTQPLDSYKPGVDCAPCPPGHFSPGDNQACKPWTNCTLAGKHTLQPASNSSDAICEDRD
# How the values were obtained:
# [1] = biological target: T1, human OX40 receptor (hOX40), residues …; assay: competition ELISA, alanine mutant against the N90D, N114D reference
# [2] = biological target: T2, human OX40 receptor (hOX40), residues …; assay: competition ELISA; relative to hOX40L N90D, N114D
# [3] = biological target: T2, human OX40 receptor (hOX40), residues …; assay: competition ELISA; hOX40L in solution with biotinylated hOX40, unbound receptor captured on plate-coated mOX40L (competitor)
# [4] = biological target: T2, human OX40 receptor (hOX40), residues …; assay: competition ELISA; mutant in solution with biotinylated hOX40, unbound receptor captured on mOX40L-coated plate (N.D.: no detectable competition)
# [5] = biological target: T1, human OX40 receptor (hOX40), residues …; assay: competition ELISA (biotinylated hOX40 pre-incubated with mutant, unbound receptor captured on mOX40L-coated plate)
"Fold-change in IC50 (Mutant/N90D, N114D) [2] [fold]",IC50 [3] [nM],Binder,also measured
–,–,"human OX40L residues 51-183 N90D, N114D, D162A (ligand, Single alanine mutant in the N90D, N114D background) GSHMQVSHRYPRIQSIKVQFTEYKKEKGFILTSQKEDEIMKVQDNSVIINCDGFYLISLKGYFSQEVDISLHYQKDEEPLFQLKKVRSVNSLMVASLTYKDKVYLNVTTDNTSLDAFHVNGGELILIHQNPGEFCVL",fold change in IC50 [1]: ≥ 3 fold
2.2,139,"human OX40L (hOX40L), wild type, residues 51-183 (ligand, Homotrimer; also called WT; OX40 ligand) GSHMQVSHRYPRIQSIKVQFTEYKKEKGFILTSQKEDEIMKVQNNSVIINCDGFYLISLKGYFSQEVNISLHYQKDEEPLFQLKKVRSVNSLMVASLTYKDKVYLNVTTDNTSLDDFHVNGGELILIHQNPGEFCVL",–
–,–,"human OX40L N166A in the N90D, N114D background, residues 51-183 (ligand, Properly assembled trimer by size exclusion chromatography) GSHMQVSHRYPRIQSIKVQFTEYKKEKGFILTSQKEDEIMKVQDNSVIINCDGFYLISLKGYFSQEVDISLHYQKDEEPLFQLKKVRSVNSLMVASLTYKDKVYLNVTTDNTSLDDFHVAGGELILIHQNPGEFCVL",binding result [4]: no binding
6.9,425,"human OX40L D162A in the N90D, N114D background, residues 51-183 (ligand, Properly assembled trimer by size exclusion chromatography) GSHMQVSHRYPRIQSIKVQFTEYKKEKGFILTSQKEDEIMKVQDNSVIINCDGFYLISLKGYFSQEVDISLHYQKDEEPLFQLKKVRSVNSLMVASLTYKDKVYLNVTTDNTSLDAFHVNGGELILIHQNPGEFCVL",–
–,–,"human OX40L residues 51-183 N90D, N114D, F180A (ligand, Single alanine mutant in the N90D, N114D background) GSHMQVSHRYPRIQSIKVQFTEYKKEKGFILTSQKEDEIMKVQDNSVIINCDGFYLISLKGYFSQEVDISLHYQKDEEPLFQLKKVRSVNSLMVASLTYKDKVYLNVTTDNTSLDDFHVNGGELILIHQNPGEACVL",binding result [5]: no binding
3,186,"human OX40L E123A in the N90D, N114D background, residues 51-183 (ligand, Properly assembled trimer by size exclusion chromatography) GSHMQVSHRYPRIQSIKVQFTEYKKEKGFILTSQKEDEIMKVQDNSVIINCDGFYLISLKGYFSQEVDISLHYQKDAEPLFQLKKVRSVNSLMVASLTYKDKVYLNVTTDNTSLDDFHVNGGELILIHQNPGEFCVL",–
–,62,"human OX40L (hOX40L) N90D, N114D double glycosylation mutant, residues 51-183 (ligand, Homotrimer; also called hOX40Ligand; hOX40L double glycosylation mutant) GSHMQVSHRYPRIQSIKVQFTEYKKEKGFILTSQKEDEIMKVQDNSVIINCDGFYLISLKGYFSQEVDISLHYQKDEEPLFQLKKVRSVNSLMVASLTYKDKVYLNVTTDNTSLDDFHVNGGELILIHQNPGEFCVL",–
2.2,139,"human OX40L T144A in the N90D, N114D background, residues 51-183 (ligand, Properly assembled trimer by size exclusion chromatography) GSHMQVSHRYPRIQSIKVQFTEYKKEKGFILTSQKEDEIMKVQDNSVIINCDGFYLISLKGYFSQEVDISLHYQKDEEPLFQLKKVRSVNSLMVASLAYKDKVYLNVTTDNTSLDDFHVNGGELILIHQNPGEFCVL",–
8.6,537,"human OX40L Q80A in the N90D, N114D background, residues 51-183 (ligand, Properly assembled trimer by size exclusion chromatography) GSHMQVSHRYPRIQSIKVQFTEYKKEKGFILTSAKEDEIMKVQDNSVIINCDGFYLISLKGYFSQEVDISLHYQKDEEPLFQLKKVRSVNSLMVASLTYKDKVYLNVTTDNTSLDDFHVNGGELILIHQNPGEFCVL",–
–,–,"human OX40L F180A in the N90D, N114D background, residues 51-183 (ligand, Properly assembled trimer by size exclusion chromatography) GSHMQVSHRYPRIQSIKVQFTEYKKEKGFILTSQKEDEIMKVQDNSVIINCDGFYLISLKGYFSQEVDISLHYQKDEEPLFQLKKVRSVNSLMVASLTYKDKVYLNVTTDNTSLDDFHVNGGELILIHQNPGEACVL",binding result [4]: no binding
–,–,"human OX40L residues 51-183 N90D, N114D, Q80A (ligand, Single alanine mutant in the N90D, N114D background) GSHMQVSHRYPRIQSIKVQFTEYKKEKGFILTSAKEDEIMKVQDNSVIINCDGFYLISLKGYFSQEVDISLHYQKDEEPLFQLKKVRSVNSLMVASLTYKDKVYLNVTTDNTSLDDFHVNGGELILIHQNPGEFCVL",fold change in IC50 [1]: ≥ 3 fold
–,–,"human OX40L residues 51-183 N90D, N114D, N166A (ligand, Single alanine mutant in the N90D, N114D background) GSHMQVSHRYPRIQSIKVQFTEYKKEKGFILTSQKEDEIMKVQDNSVIINCDGFYLISLKGYFSQEVDISLHYQKDEEPLFQLKKVRSVNSLMVASLTYKDKVYLNVTTDNTSLDDFHVAGGELILIHQNPGEFCVL",binding result [5]: no binding
